One assay concerns CD8+ T cells. Put plainly: In vitro T-cell priming assay with aAPCs loaded with peptide/MHC complexes and anti-CD28 antibody, pMHC multimer readout. Format: cell-based, human. The settings on record: in vitro immunogenicity; for Wells positive [%]: HLA-A*02 restricted peptides, positive wells among evaluable (Table 10B); for wells: percentage of positive wells, healthy HLA-A*02 donors (Table 10A). An excerpt:
In order to obtain information regarding the immunogenicity of the TUMAPs of the present invention, the inventors performed investigations using an in vitro T-cell priming assay based on repeated stimulations of CD8+ T cells with artificial antigen presenting cells (aAPCs) loaded with peptide/MHC complexes and anti-CD28 antibody.
In order to perform in vitro stimulations by artificial antigen presenting cells loaded with peptide-MHC complex (pMHC) and anti-CD28 antibody, the inventors first isolated CD8+ T cells from fresh HLA-A*02 leukapheresis products via positive selection using CD8 microbeads (Miltenyi Biotec, Bergisch-Gladbach, Germany) of healthy donors obtained from the University clinics Mannheim, Germany, after informed consent.
PBMCs and isolated CD8+ lymphocytes were incubated in T-cell medium (TCM) until use consisting of RPMI-Glutamax (Invitrogen, Karlsruhe, Germany) supplemented with 10% heat inactivated human AB serum (PAN-Biotech, Aidenbach, Germany), 100 U/ml Penicillin/100 μg/ml Streptomycin (Cambrex, Cologne, Germany), 1 mM sodium pyruvate (CC Pro, Oberdorla, Germany), 20 μg/ml Gentamycin (Cambrex). 2.5 ng/ml IL-7 (PromoCell, Heidelberg, Germany) and 10 U/ml IL-2 (Novartis Pharma, Nürnberg, Germany) were also added to the TCM at this step.
Generation of pMHC/anti-CD28 coated beads, T-cell stimulations and readout was performed in a highly defined in vitro system using four different pMHC molecules per stimulation condition and 8 different pMHC molecules per readout condition.
The purified co-stimulatory mouse IgG2a anti human CD28 Ab 9.3 (Jung et al., 1987) was chemically biotinylated using Sulfo-N-hydroxysuccinimidobiotin as recommended by the manufacturer (Perbio, Bonn, Germany). Beads used were 5.6 μm diameter streptavidin coated polystyrene particles (Bangs Laboratories, Illinois, USA).
800.000 beads/200 μI were coated in 96-well plates in the presence of 4×12.5 ng different biotin-pMHC, washed and 600 ng biotin anti-CD28 were added subsequently in a volume of 200 μI. Stimulations were initiated in 96-well plates by co-incubating 1×10^6 CD8+ T cells with 2×10^5 washed coated beads in 200 μI TCM supplemented with 5 ng/ml IL-12 (PromoCell) for 3 days at 37° C. Half of the medium was then exchanged by fresh TCM supplemented with 80 U/ml IL-2 and incubating was continued for 4 days at 37° C. This stimulation cycle was performed for a total of three times. For the pMHC multimer readout using 8 different pMHC molecules per condition, a two-dimensional combinatorial coding approach was used as previously described (Andersen et al., 2012) with minor modifications encompassing coupling to 5 different fluorochromes. Finally, multimeric analyses were performed by staining the cells with Live/dead near IR dye (Invitrogen, Karlsruhe, Germany), CD8-FITC antibody clone SK1 (BD, Heidelberg, Germany) and fluorescent pMHC multimers. For analysis, a BD LSRII SORP cytometer equipped with appropriate lasers and filters was used. Peptide specific cells were calculated as percentage of total CD8+ cells. Evaluation of multimeric analysis was done using the FlowJo software (Tree Star, Oregon, USA). In vitro priming of specific multimer+ CD8+ lymphocytes was detected by comparing to negative control stimulations.

The next assay concerns the target HLA-A*02:01 (Homo sapiens, UniProt P04439, D140Y/D185E/D98H/E176V/E277Q/G131W/G231S/I119V/I121R/I166T/I218V/L300P/L318F/N151K/N90K/P208A/P217A/Q86G/Q94H/R138H/R169H/T345S). Put plainly: MHC binding assay: UV-ligand exchange with β2m ELISA. The settings on record: peptide exchange yield, binding to HLA-A*02:01. The source says: Candidate peptides for T cell based therapies according to the present invention were further tested for their MHC binding capacity (affinity). The individual peptide-MHC complexes were produced by UV-ligand exchange, where a UV-sensitive peptide is cleaved upon UV-irradiation, and exchanged with the peptide of interest as analyzed. Only peptide candidates that can effectively bind and stabilize the peptide-receptive MHC molecules prevent dissociation of the MHC complexes. To determine the yield of the exchange reaction, an ELISA was performed based on the detection of the light chain (β2m) of stabilized MHC complexes. The assay was performed as generally described in Rodenko et al. (Rodenko et al., 2006).
96 well MAXISorp plates (NUNC) were coated over night with 2 ug/ml streptavidin in PBS at room temperature, washed 4× and blocked for 1 h at 37° C. in 2% BSA containing blocking buffer. Refolded HLA-A*02:01/MLA-001 monomers served as standards, covering the range of 15-500 ng/ml. Peptide-MHC monomers of the UV-exchange reaction were diluted 100 fold in blocking buffer. Samples were incubated for 1 h at 37° C., washed four times, incubated with 2 ug/ml HRP conjugated anti-β2m for 1 h at 37° C., washed again and detected with TMB solution that is stopped with […]. Absorption was measured at 450 nm. Candidate peptides that show a high exchange yield (preferably higher than 50%, most preferred higher than 75%) are generally preferred for a generation and production of antibodies or fragments thereof, and/or T cell receptors or fragments thereof, as they show sufficient avidity to the MHC molecules and prevent dissociation of the MHC complexes.

For the substance “1 (KLLDNLHDL; listed as Homo sapiens) [compound 1]”, the “Wells positive [%]” value in the assay on CD8+ T cells is given as “+ (<20% = +)”. Moreover, the Peptide exchange result with HLA-A*02:01 is given as “++++ (> 75% = ++++)”. “2 (VLLDIFTGV; listed as Homo sapiens) [compound 2]”: in the assay with CD8+ T cells, the “Wells positive [%]” value was “+++ (50%-69% = +++)”. The Peptide exchange entry with HLA-A*02:01 is “++++ (> 75% = ++++)”. Taken in the same sequence, the figures for “3 (GLDGATYTV; listed as Homo sapiens) [compound 3]” were “++++ (> = 70% = ++++)” and “+++ (>50 = +++)”.

In the case of “6 (SLLSELVEA; listed as Homo sapiens) [compound 6]”, the “Wells positive [%]” value in the assay with CD8+ T cells is reported as “+ (<20% = +)”. The Peptide exchange entry with HLA-A*02:01 is on record as “++++ (> 75% = ++++)”. With “7 (SILSLLIKL; listed as Homo sapiens) [compound 7]”, in the assay with CD8+ T cells, the “Wells positive [%]” value is reported as “++ (20%-49% = ++)”. Moreover, the Peptide exchange result with HLA-A*02:01 is recorded as “++ (>20% = ++)”. In the case of “9 (SLYPGTETM; listed as Homo sapiens) [compound 9]”, in the assay on CD8+ T cells, the “Wells positive [%]” value is on record as “+ (<20% = +)”. The Peptide exchange entry with HLA-A*02:01 was “+++ (>50 = +++)”. “10 (AILDVVVNL; listed as Homo sapiens) [compound 10]”: the “Wells positive [%]” value in the assay with CD8+ T cells was “+ (<20% = +)”. Further, the Peptide exchange result in the assay with HLA-A*02:01 is “++++ (> 75% = ++++)”. Take “14 (FLVDSLISA; listed as Homo sapiens) [compound 14]”: the “Wells positive [%]” value in the assay on CD8+ T cells is listed as “++ (20%-49% = ++)”. In addition, the Peptide exchange result with HLA-A*02:01 is on record as “++++ (> 75% = ++++)”. Taken in the same sequence, the figures for “20 (ALLGFVTDL; listed as Homo sapiens) [compound 20]” were “++ (20%-49% = ++)” and “++++ (> 75% = ++++)”. Taken in the same sequence, the figures for “23 (GLGPNLVGV; listed as Homo sapiens) [compound 23]” were “++++ (> = 70% = ++++)” and “++++ (> 75% = ++++)”.

As for “42 (FLSGYYVTL; listed as Homo sapiens) [compound 42]”, the Peptide exchange entry with HLA-A*02:01 is on record as “++++ (> 75% = ++++)”.

For “43 (VIANEIEKV; listed as Homo sapiens) [compound 43]”, the Peptide exchange entry in the assay with HLA-A*02:01 is on record as “+++ (>50 = +++)”. In the case of “44 (FLNGLEILL; listed as Homo sapiens) [compound 44]”, in the assay with HLA-A*02:01, the Peptide exchange entry is “++++ (> 75% = ++++)”. Still for that read-out and setting: the same measure for “45 (VLLHVSVLL; listed as Homo sapiens) [compound 45]”: “++ (>20% = ++)”; for “46 (NMDDVIYYV; listed as Homo sapiens) [compound 46]”: “+++ (>50 = +++)”. As to “47 (GLVEQLYDL; listed as Homo sapiens) [compound 47]”, the Peptide exchange result with HLA-A*02:01 was “+++ (>50 = +++)”. Same read-out and setting: the same measure for “48 (ILAETQPEL; listed as Homo sapiens) [compound 48]”: “+++ (>50 = +++)”; for “49 (ALLELLHEL; listed as Homo sapiens) [compound 49]”: “++++ (> 75% = ++++)”; for “50 (TLSTVIATV; listed as Homo sapiens) [compound 50]”: “++++ (> 75% = ++++)”. On the same count and under the same terms, the same measure for “51 (TVPPVFVSV; listed as Homo sapiens) [compound 51]”: “+++ (>50 = +++)”; for “52 (ALISEKLETL; listed as Homo sapiens) [compound 52]”: “+++ (>50 = +++)”. Turning to “53 (VMHDSSFSV; listed as Homo sapiens) [compound 53]”, the Peptide exchange entry with HLA-A*02:01 is given as “++++ (> 75% = ++++)”.

For the substance “54 (TLSDVVVGL; listed as Homo sapiens) [compound 54]”, the Peptide exchange result with HLA-A*02:01 is “+++ (>50 = +++)”. In the case of “56 (LLLEILHEI; listed as Homo sapiens) [compound 56]”, in the assay with CD8+ T cells, the wells entry was “+ (<20% = +)”. Regarding “57 (ALADLTGTVV; listed as Homo sapiens) [compound 57]”, the wells result with CD8+ T cells is on record as “+ (<20% = +)”. On the same count and under the same terms, next, “58 (GVLENIFGV; listed as Homo sapiens) [compound 58]”: “+ (<20% = +)”; “59 (QLLAGVFLA; listed as Homo sapiens) [compound 59]”: “+ (<20% = +)”; “62 (SLWGGDVVL; listed as Homo sapiens) [compound 62]”: “++ (20%-49% = ++)”. Still for that read-out and setting: next, “64 (ALYDSVILL; listed as Homo sapiens) [compound 64]”: “+ (<20% = +)”; “69 (VLTEFTREV; listed as Homo sapiens) [compound 69]”: “+ (<20% = +)”.

For the origin of these results see patent US11390660B2, “Uterine cancer treatments” (Immatics Biotechnologies GmbH, priority 2016, dated 2022).
